Reference: patent US20230079955A1 (POSEIDA THERAPEUTICS, published 2023)

T1: His-tagged p62/p58 MUC1 protein (UniProt P15941 1036-1155, limits assumed)
T1 construct: domain: p62/p58; Soluble staining reagent for the CAR on T cells, detected with an anti-His secondary antibody; not shown: His tag
T1 sequence (looked up): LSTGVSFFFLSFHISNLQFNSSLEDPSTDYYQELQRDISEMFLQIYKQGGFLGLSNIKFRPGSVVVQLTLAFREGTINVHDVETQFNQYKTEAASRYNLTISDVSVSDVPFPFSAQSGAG


Tests used:
[1] = biological target: T1, His-tagged p62/p58 MUC1 protein; assay: flow cytometry of CAR-T cells stained with His-tagged p62/p58 MUC1 protein and anti-His secondary antibody, day 19
Source text: (§1) MUC1-C candidate CARs were subcloned into a tricistronic piggyBac transposon (EF1alpha promoter-iC9 Safety Switch-T2A-MUC1-C CAR-T2A-DHFR selection gene) and CAR-T cells were produced using pan T cells from a normal human blood donor as described herein (FIG. 6). Expression of each candidate CAR on the surface of piggyBac-modified cells was confirmed by FACS staining 19 days post-transposon delivery using an His-tagged p62/p58 MUC1 protein, followed by anti-His secondary antibody (FIG. 6). Specifically, cells were examined by flow cytometry for surface-expression of CAR on either mock transposed (blue) or anti-CD3/CD28 bead re-activated (red) cells (activation for 48 hours) that received transposon encoding CAR and data are shown as overlaid histograms; numbers represent percentage of cells expressing CAR on cell surface. All candidate MUC1-C CARs were expressed and detected on the surface of piggyBac-produced CAR-T cells (FIG. 7).

[2] = biological target: MUC1 on MDA-MB-468.lucGFP cells (UniProt P15941 24-1255); assay: cell-based or functional assay
MUC1 on MDA-MB-468.lucGFP cells, sequence (P15941 24-1255): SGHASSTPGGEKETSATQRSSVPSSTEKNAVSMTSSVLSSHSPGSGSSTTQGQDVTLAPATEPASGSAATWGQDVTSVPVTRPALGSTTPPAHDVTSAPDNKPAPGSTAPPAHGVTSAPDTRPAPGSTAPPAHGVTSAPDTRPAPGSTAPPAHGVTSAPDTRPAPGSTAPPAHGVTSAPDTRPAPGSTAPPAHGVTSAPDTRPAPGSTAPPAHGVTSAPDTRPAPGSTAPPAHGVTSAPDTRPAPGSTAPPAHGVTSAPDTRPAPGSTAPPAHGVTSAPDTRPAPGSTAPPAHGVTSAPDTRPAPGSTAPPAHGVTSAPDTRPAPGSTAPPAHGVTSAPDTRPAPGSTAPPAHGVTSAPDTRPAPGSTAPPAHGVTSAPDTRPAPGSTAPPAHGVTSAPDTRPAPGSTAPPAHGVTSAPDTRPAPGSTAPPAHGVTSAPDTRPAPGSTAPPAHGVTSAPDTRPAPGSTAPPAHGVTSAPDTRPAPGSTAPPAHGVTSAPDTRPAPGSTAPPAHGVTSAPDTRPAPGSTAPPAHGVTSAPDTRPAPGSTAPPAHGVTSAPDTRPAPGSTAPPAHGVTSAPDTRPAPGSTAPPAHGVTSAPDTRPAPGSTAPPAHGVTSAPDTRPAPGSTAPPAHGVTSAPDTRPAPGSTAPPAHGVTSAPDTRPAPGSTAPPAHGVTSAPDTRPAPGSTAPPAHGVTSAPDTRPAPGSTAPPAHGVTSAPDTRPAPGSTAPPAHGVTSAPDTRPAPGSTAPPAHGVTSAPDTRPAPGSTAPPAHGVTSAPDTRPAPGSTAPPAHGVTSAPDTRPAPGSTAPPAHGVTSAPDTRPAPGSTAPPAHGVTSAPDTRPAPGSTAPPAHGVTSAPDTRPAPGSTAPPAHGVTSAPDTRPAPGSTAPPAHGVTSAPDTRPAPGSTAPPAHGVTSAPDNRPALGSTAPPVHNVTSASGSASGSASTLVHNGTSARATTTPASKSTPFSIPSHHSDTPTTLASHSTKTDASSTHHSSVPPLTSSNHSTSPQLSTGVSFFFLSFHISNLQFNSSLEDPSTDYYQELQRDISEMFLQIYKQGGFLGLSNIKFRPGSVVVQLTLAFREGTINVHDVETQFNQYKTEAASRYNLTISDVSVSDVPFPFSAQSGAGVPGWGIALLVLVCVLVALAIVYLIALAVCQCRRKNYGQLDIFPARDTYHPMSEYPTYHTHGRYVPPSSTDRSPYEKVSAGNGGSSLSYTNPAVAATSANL

[3] = biological target: T1, His-tagged p62/p58 MUC1 protein; assay: flow cytometry of CAR-T cells (anti-CD3/CD28 bead re-activated, 48 hours) stained with His-tagged p62/p58 MUC1 protein and anti-His secondary antibody
Source text: as §1

Row | MFI (non-activated cells) [1] [MFI] | MFI (activated cells) [3] [MFI] | Binder | Target cell killing area under the curve (AUC) [2]
1 | 717 | 3830 | "L2H2" CAR (humanized MUC1-C scFv chimeric antigen receptor) (other) EILLTQSPDFQSVTPKEKVTFTCRASQSIGTSIHWYQQKPNQSPKLLIKYASESISGVPSRFSGSGSGTDFTLTINSVESEDIADYYCQQSNNWPLTFGQGTKLEIKGGGGSGGGGSGGGGSQVQLVQSGAEVKKPGSSVKISCKTSGYAFSNFWMNWVRQAPGQGLEWIGQIYPGDGDTNYNGKFKGRVTLTADKSTSTAYMELSSLRSEATAVYFCARSYYRSAWFAYWGQGTLVTVSSTTTPAPRPPTPAPTIASQPLSLRPEACRPAAGGAVHTRGLDFACDIYIWAPLAGTCGVLLLSLVITLYCKRGRKKLLYIFKQPFMRPVQTTQEEDGCSCRFPEEEEGGCELRVKFSRSADAPAYKQGQNQLYNELNLGRREEYDVLDKRRGRDPEMGGKPRRKNPQEGLYNELQKDKMAEAYSEIGMKGERRRGKGHDGLYQGLSTATKDTYDALHMQALPPR | 482
2 | 726 | 3620 | "L3H2" CAR (humanized MUC1-C scFv chimeric antigen receptor) (other, also called 13H2) EILLTQSPDFQSVTPKEKVTFTCRASQSIGTSIHWYQQKPNQSPKLLIKYASESISGVPSRFSGSGSGTDFTLSINSVESEDIADYYCQQSNNWPLTFGQGTKLEIKGGGGSGGGGSGGGGSQVQLVQSGAEVKKPGSSVKISCKTSGYAFSNFWMNWVRQAPGQGLEWIGQIYPGDGDTNYNGKFKGRVTLTADKSTSTAYMELSSLRSEATAVYFCARSYYRSAWFAYWGQGTLVTVSSTTTPAPRPPTPAPTIASQPLSLRPEACRPAAGGAVHTRGLDFACDIYIWAPLAGTCGVLLLSLVITLYCKRGRKKLLYIFKQPFMRPVQTTQEEDGCSCRFPEEEEGGCELRVKFSRSADAPAYKQGQNQLYNELNLGRREEYDVLDKRRGRDPEMGGKPRRKNPQEGLYNELQKDKMAEAYSEIGMKGERRRGKGHDGLYQGLSTATKDTYDALHMQALPPR | 503
3 | 770 | 2880 | "L2H3" CAR (humanized MUC1-C scFv chimeric antigen receptor) (other) EILLTQSPDFQSVTPKEKVTFTCRASQSIGTSIHWYQQKPNQSPKLLIKYASESISGVPSRFSGSGSGTDFTLTINSVESEDIADYYCQQSNNWPLTFGQGTKLEIKGGGGSGGGGSGGGGSQVQLVQSGAEVKKPGSSVKISCKTSGYAFSNFWMNWVKQRPGQGLEWIGQIYPGDGDTNYNGKFKGRATLTADKSTSTAYMELSSLRSEATAVYFCARSYYRSAWFAYWGQGTLVTVSSTTTPAPRPPTPAPTIASQPLSLRPEACRPAAGGAVHTRGLDFACDIYIWAPLAGTCGVLLLSLVITLYCKRGRKKLLYIFKQPFMRPVQTTQEEDGCSCRFPEEEEGGCELRVKFSRSADAPAYKQGQNQLYNELNLGRREEYDVLDKRRGRDPEMGGKPRRKNPQEGLYNELQKDKMAEAYSEIGMKGERRRGKGHDGLYQGLSTATKDTYDALHMQALPPR | 542
4 | 696 | 2580 | "L3H3" CAR (humanized MUC1-C scFv chimeric antigen receptor) (other) EILLTQSPDFQSVTPKEKVTFTCRASQSIGTSIHWYQQKPNQSPKLLIKYASESISGVPSRFSGSGSGTDFTLSINSVESEDIADYYCQQSNNWPLTFGQGTKLEIKGGGGSGGGGSGGGGSQVQLVQSGAEVKKPGSSVKISCKTSGYAFSNFWMNWVKQRPGQGLEWIGQIYPGDGDTNYNGKFKGRATLTADKSTSTAYMELSSLRSEATAVYFCARSYYRSAWFAYWGQGTLVTVSSTTTPAPRPPTPAPTIASQPLSLRPEACRPAAGGAVHTRGLDFACDIYIWAPLAGTCGVLLLSLVITLYCKRGRKKLLYIFKQPFMRPVQTTQEEDGCSCRFPEEEEGGCELRVKFSRSADAPAYKQGQNQLYNELNLGRREEYDVLDKRRGRDPEMGGKPRRKNPQEGLYNELQKDKMAEAYSEIGMKGERRRGKGHDGLYQGLSTATKDTYDALHMQALPPR | 518
5 | 714 | 2990 | "L1H2B" CAR (humanized MUC1-C scFv chimeric antigen receptor) (other) EILLTQSPDFQSVTPKEKVTFTCRASQSIGTSIHWYQQKPNQSPKLLIKYASESISGVPSRFSGSGSGTDFTLTINSLESEDIATYYCQQSNNWPLTFGQGTKLEIKGGGGSGGGGSGGGGSQVQLVQSGAEVKKPGSSVKISCKTSGYAFSNFWMNWVRQAPGQGLEWIGQIYPGDGDTNYNAKFKGRVTLTADKSTSTAYMELSSLRSEATAVYFCARSYYRSAWFAYWGQGTLVTVSSTTTPAPRPPTPAPTIASQPLSLRPEACRPAAGGAVHTRGLDFACDIYIWAPLAGTCGVLLLSLVITLYCKRGRKKLLYIFKQPFMRPVQTTQEEDGCSCRFPEEEEGGCELRVKFSRSADAPAYKQGQNQLYNELNLGRREEYDVLDKRRGRDPEMGGKPRRKNPQEGLYNELQKDKMAEAYSEIGMKGERRRGKGHDGLYQGLSTATKDTYDALHMQALPPR | 528
6 | 743 | 3320 | "L1H3" CAR (humanized MUC1-C scFv chimeric antigen receptor) (other) EILLTQSPDFQSVTPKEKVTFTCRASQSIGTSIHWYQQKPNQSPKLLIKYASESISGVPSRFSGSGSGTDFTLTINSLESEDIATYYCQQSNNWPLTFGQGTKLEIKGGGGSGGGGSGGGGSQVQLVQSGAEVKKPGSSVKISCKTSGYAFSNFWMNWVKQRPGQGLEWIGQIYPGDGDTNYNGKFKGRATLTADKSTSTAYMELSSLRSEATAVYFCARSYYRSAWFAYWGQGTLVTVSSTTTPAPRPPTPAPTIASQPLSLRPEACRPAAGGAVHTRGLDFACDIYIWAPLAGTCGVLLLSLVITLYCKRGRKKLLYIFKQPFMRPVQTTQEEDGCSCRFPEEEEGGCELRVKFSRSADAPAYKQGQNQLYNELNLGRREEYDVLDKRRGRDPEMGGKPRRKNPQEGLYNELQKDKMAEAYSEIGMKGERRRGKGHDGLYQGLSTATKDTYDALHMQALPPR | 490
7 | 695 | 1960 | "L3H4" CAR (humanized MUC1-C scFv chimeric antigen receptor) (other, also called 13H4) EILLTQSPDFQSVTPKEKVTFTCRASQSIGTSIHWYQQKPNQSPKLLIKYASESISGVPSRFSGSGSGTDFTLSINSVESEDIADYYCQQSNNWPLTFGQGTKLEIKGGGGSGGGGSGGGGSQVQLVQSGAEVKKPGSSVKISCKTSGYAFSNFWMNWVKQRPGQGLEWIGQIYPGDGDTNYNGKFKGRATLTADKSSSTAYMELSSLRSEATAVYFCARSYYRSAWFAYWGQGTLVTVSSTTTPAPRPPTPAPTIASQPLSLRPEACRPAAGGAVHTRGLDFACDIYIWAPLAGTCGVLLLSLVITLYCKRGRKKLLYIFKQPFMRPVQTTQEEDGCSCRFPEEEEGGCELRVKFSRSADAPAYKQGQNQLYNELNLGRREEYDVLDKRRGRDPEMGGKPRRKNPQEGLYNELQKDKMAEAYSEIGMKGERRRGKGHDGLYQGLSTATKDTYDALHMQALPPR | 501
8 | 729 | 3020 | "L2H4" CAR (humanized MUC1-C scFv chimeric antigen receptor) (other) EILLTQSPDFQSVTPKEKVTFTCRASQSIGTSIHWYQQKPNQSPKLLIKYASESISGVPSRFSGSGSGTDFTLTINSVESEDIADYYCQQSNNWPLTFGQGTKLEIKGGGGSGGGGSGGGGSQVQLVQSGAEVKKPGSSVKISCKTSGYAFSNFWMNWVKQRPGQGLEWIGQIYPGDGDTNYNGKFKGRATLTADKSSSTAYMELSSLRSEATAVYFCARSYYRSAWFAYWGQGTLVTVSSTTTPAPRPPTPAPTIASQPLSLRPEACRPAAGGAVHTRGLDFACDIYIWAPLAGTCGVLLLSLVITLYCKRGRKKLLYIFKQPFMRPVQTTQEEDGCSCRFPEEEEGGCELRVKFSRSADAPAYKQGQNQLYNELNLGRREEYDVLDKRRGRDPEMGGKPRRKNPQEGLYNELQKDKMAEAYSEIGMKGERRRGKGHDGLYQGLSTATKDTYDALHMQALPPR | 518
9 | 720 | 3030 | "L1H2" CAR (humanized MUC1-C scFv chimeric antigen receptor) (other) EILLTQSPDFQSVTPKEKVTFTCRASQSIGTSIHWYQQKPNQSPKLLIKYASESISGVPSRFSGSGSGTDFTLTINSLESEDIATYYCQQSNNWPLTFGQGTKLEIKGGGGSGGGGSGGGGSQVQLVQSGAEVKKPGSSVKISCKTSGYAFSNFWMNWVRQAPGQGLEWIGQIYPGDGDTNYNGKFKGRVTLTADKSTSTAYMELSSLRSEATAVYFCARSYYRSAWFAYWGQGTLVTVSSTTTPAPRPPTPAPTIASQPLSLRPEACRPAAGGAVHTRGLDFACDIYIWAPLAGTCGVLLLSLVITLYCKRGRKKLLYIFKQPFMRPVQTTQEEDGCSCRFPEEEEGGCELRVKFSRSADAPAYKQGQNQLYNELNLGRREEYDVLDKRRGRDPEMGGKPRRKNPQEGLYNELQKDKMAEAYSEIGMKGERRRGKGHDGLYQGLSTATKDTYDALHMQALPPR | 466
10 | 737 | 2510 | "L1H4" CAR (humanized MUC1-C scFv chimeric antigen receptor) (other) EILLTQSPDFQSVTPKEKVTFTCRASQSIGTSIHWYQQKPNQSPKLLIKYASESISGVPSRFSGSGSGTDFTLTINSLESEDIATYYCQQSNNWPLTFGQGTKLEIKGGGGSGGGGSGGGGSQVQLVQSGAEVKKPGSSVKISCKTSGYAFSNFWMNWVKQRPGQGLEWIGQIYPGDGDTNYNGKFKGRATLTADKSSSTAYMELSSLRSEATAVYFCARSYYRSAWFAYWGQGTLVTVSSTTTPAPRPPTPAPTIASQPLSLRPEACRPAAGGAVHTRGLDFACDIYIWAPLAGTCGVLLLSLVITLYCKRGRKKLLYIFKQPFMRPVQTTQEEDGCSCRFPEEEEGGCELRVKFSRSADAPAYKQGQNQLYNELNLGRREEYDVLDKRRGRDPEMGGKPRRKNPQEGLYNELQKDKMAEAYSEIGMKGERRRGKGHDGLYQGLSTATKDTYDALHMQALPPR | 498
